Laboratory results from patent publication US20190040149A1 (Innovent, published 2019).

T1: murine PD-1 (soluble antigen of the MSD assay) (mouse, UniProt Q02242 25-169, limits assumed)
T1 construct: also called mouse PD-1
T1 sequence: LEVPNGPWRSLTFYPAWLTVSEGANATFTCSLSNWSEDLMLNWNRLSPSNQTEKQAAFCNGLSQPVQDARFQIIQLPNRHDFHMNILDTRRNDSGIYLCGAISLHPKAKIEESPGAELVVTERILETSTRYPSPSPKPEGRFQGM

T2: murine PD-1 on CHO cells (mouse, UniProt Q02242 25-288)
T2 sequence: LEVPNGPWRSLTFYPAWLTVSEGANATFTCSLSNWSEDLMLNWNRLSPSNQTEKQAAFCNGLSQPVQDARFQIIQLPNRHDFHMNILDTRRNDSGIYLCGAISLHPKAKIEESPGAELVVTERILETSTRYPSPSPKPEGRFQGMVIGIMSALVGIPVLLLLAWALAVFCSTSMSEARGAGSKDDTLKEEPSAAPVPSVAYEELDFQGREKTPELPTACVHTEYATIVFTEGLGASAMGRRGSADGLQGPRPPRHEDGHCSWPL


What was measured:
[1] = target: T3, human PD-1 on cells (CHO cells; T cells in the mixed lymphocyte reaction) (human, UniProt Q15116 25-288); experiment: cell-based or functional assay
T3 sequence (Q15116 25-288 limits assumed): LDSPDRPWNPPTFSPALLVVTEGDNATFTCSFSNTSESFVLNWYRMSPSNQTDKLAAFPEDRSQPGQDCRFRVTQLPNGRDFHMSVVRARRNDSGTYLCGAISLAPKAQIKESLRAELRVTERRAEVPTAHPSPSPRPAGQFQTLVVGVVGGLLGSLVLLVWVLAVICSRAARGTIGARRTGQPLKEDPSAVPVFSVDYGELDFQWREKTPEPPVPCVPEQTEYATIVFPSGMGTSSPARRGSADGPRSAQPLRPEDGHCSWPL

[2] = target: T3, human PD-1 on cells (CHO cells; T cells …); experiment: flow cytometry on CHO cells with human PD-1 (n=1)
Description: (§1) Cells are then washed 3×, and are incubated with a secondary antibody (PE-labelled, at final concentration of 5 μg/ml) in PBS 1% BSA for 30 min on ice (protected from light). Cells are washed 3× and analyzed via flow cytometry. Flow cytometry is performed on an Accuri C6 system (BD Biosciences) and MFIs are calculated on the C6 software. EC50 s are calculated on Graphpad software.

[3] = target: T3, human PD-1 on cells (CHO cells; T cells …); experiment: cell-based or functional assay; remark: listed apart in the source
[4] = target: T4, human PD-1 (soluble antigen of the MSD assay, b-PD-1 monomer) (human, UniProt Q15116 25-170, limits assumed, biotinylated (b-PD-1), site not stated); experiment: MSD solution equilibrium titration, monovalent KD
T4 construct: The antigen format of the 'avid' measurement is not described
T4 sequence (Q15116 25-170 limits assumed): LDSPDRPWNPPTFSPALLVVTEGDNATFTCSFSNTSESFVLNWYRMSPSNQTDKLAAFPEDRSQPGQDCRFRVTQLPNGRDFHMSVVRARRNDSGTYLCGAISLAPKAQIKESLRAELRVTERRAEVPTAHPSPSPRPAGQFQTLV
Description: (§2) Equilibrium affinity measurements are performed as previously described (Estep, P., et al., MAbs, 2013. 5(2): p. 270-8). Solution equilibrium titrations (SET) are performed in PBS+0.1% IgG-Free BSA (PBSF) where antigen (b-PD-1 monomer) is held constant at 10-100 pM and is incubated with 3- to 5-fold serial dilutions of Fab or mAbs starting at 5-100 nM (experimental condition is sample dependent). Antibodies diluted at 20 nM in PBS are coated onto standard bind MSD-ECL plates overnight at 4° C. or at room temperature for 30 min. Plates are blocked with BSA for 30 min whilst shaking at 700 rpm. Plates are then washed 3× with wash buffer (PBSF+0.05% Tween 20). SET samples are applied and incubated on the plates for 150 s with shaking at 700 rpm followed by one wash. Antigen captured on a plate is detected with 250 ng/mL sulfotag-labeled streptavidin in PBSF by incubation on the plate for 3 min. The plates are washed three times with wash buffer and are then read on the MSD Sector Imager 2400 instrument using 1× Read Buffer T with surfactant. The percent free antigen is plotted as a function of titrated antibody in Prism and fit to a quadratic equation to extract the KD. To improve throughput, liquid handling robots are used throughout MSD-SET experiments, including for SET sample preparation.

[5] = target: T1, murine PD-1 (soluble antigen of the MSD …); experiment: MSD solution equilibrium titration, monovalent KD
Description: as §2

[6] = target: T3, human PD-1 on cells (CHO cells; T cells …); experiment: flow cytometry, remaining PD-L2-FITC signal after 100 nM antibody; competitor PD-L2-FITC
Description: CHO cells 0.2×10⁶ are incubated with the experimental antibody (100 nM) for 30 min in PBS 1% BSA on ice. […] Cells are washed 3× and analyzed via flow cytometry. Flow cytometry is performed on an Accuri C6 system (BD Biosciences) and MFIs are calculated on the C6 software. EC50 s are calculated on Graphpad software.

murine PD-1 on CHO cells = target: T2, murine PD-1 on CHO cells; experiment: flow cytometry on CHO cells with murine PD-1
Description: as §1

[7] = target: T4, human PD-1 (soluble antigen of the MSD …); experiment: MSD solution equilibrium titration, avid KD
Description: as §2

human PD-1_HIS = target: T5, human PD-1_HIS (human, UniProt Q15116 25-167, limits assumed); experiment: bio-layer interferometry (ForteBio), human PD-1_HIS in solution, IgG on sensor tip
T5 construct: not shown: His tag
T5 sequence (Q15116 25-167 limits assumed): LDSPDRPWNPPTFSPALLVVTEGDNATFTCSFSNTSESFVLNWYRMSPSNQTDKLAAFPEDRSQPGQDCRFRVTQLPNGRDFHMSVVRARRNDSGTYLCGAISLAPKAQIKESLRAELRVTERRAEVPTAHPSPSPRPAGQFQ
Description: Briefly, ForteBio affinity measurements were performed by loading IgGs online onto AHQ sensors. Sensors were equilibrated off-line in assay buffer for 30 min and then monitored on-line for 60 seconds for baseline establishment. Sensors with loaded IgGs were exposed to 100 nM antigen for 5 min, afterwards they were transferred to assay buffer for 5 min for off-rate measurement. Kinetics was analyzed using the 1:1 binding model.

[8] = target: T1, murine PD-1 (soluble antigen of the MSD …); experiment: MSD solution equilibrium titration, avid KD
Description: as §2

| Binder | IL-2 in supernatant, 0.01 nM IgG [1] | IL-2 in supernatant, 0.1 nM IgG [1] | IL-2 in supernatant, 1 nM IgG [1] | IL-2 in supernatant, 10 nM IgG [1] | IL-2 in supernatant, 100 nM IgG [1] | IL-2 secretion fold change vs. IgG control, 0.01 nM IgG [1] | IL-2 secretion fold change vs. IgG control, 0.1 nM IgG [1] | IL-2 secretion fold change vs. IgG control, 1 nM IgG [1] | IL-2 secretion fold change vs. IgG control, 10 nM IgG [1] | IL-2 secretion fold change vs. IgG control, 100 nM IgG [1] | EC50 [2] | IFNg secretion fold change vs. IgG control, 0.01 nM IgG [3] | IFNg secretion fold change vs. IgG control, 0.1 nM IgG [3] | IFNg secretion fold change vs. IgG control, 1 nM IgG [3] | IFNg secretion fold change vs. IgG control, 10 nM IgG [3] | IFNg secretion fold change vs. IgG control, 100 nM IgG [3] | IFNγ in supernatant, 0.01 nM IgG [3] | IFNγ in supernatant, 0.1 nM IgG [3] | IFNγ in supernatant, 1 nM IgG [3] | IFNγ in supernatant, 10 nM IgG [3] | further results |
| --- | --- | --- | --- | --- | --- | --- | --- | --- | --- | --- | --- | --- | --- | --- | --- | --- | --- | --- | --- | --- | --- |
| Antibody A, IgG1 format expressed in yeast (antibody, V domains shown, Tested in IgG1 format, expressed in yeast) VH: QVQLVQSGAEVKKPGASVKVSCKASGYTFTSYYMHWVRQAPGQGLEWMGIINPSGGSTSYAQKFQGRVTMTRDTSTSTVYMELSSLRSEDTAVYYCAKEGVADGYGLVDVWGQGTMVTISS VL: EIVLTQSPATLSLSPGERATLSCRASQSVSSYLAWYQQKPGQAPRLLIYDASKRATGIPARFSGSGSGTDFTLTISSLEPEDFAVYYCDQRNNWPLTFGGGTKVEIK | 708 pg/mL | 586 pg/mL | 618 pg/mL | 975 pg/mL | 1410 pg/mL | 1.37 fold | 1.15 fold | 1.23 fold | 1.87 fold | 2.28 fold | 10.2 nM | 1.49 fold | 1.49 fold | 1.11 fold | 1.37 fold | 1.52 fold | 22100 pg/mL | 16400 pg/mL | 12900 pg/mL | 18400 pg/mL | IFNγ in supernatant, 100 nM IgG [3]: 22600 pg/mL; Kd [4]: 4.9 nM; Kd [5]: 9.6 nM; MFI (PD-L2-FITC) [6]: 90900 MFI; EC50 (murine PD-1 on CHO cells): 11 nM; Kd [7]: 0.049 nM; Kd (human PD-1_HIS): 4.3 nM |
| Antibody C, IgG1 format expressed in yeast (antibody, V domains shown, Tested in IgG1 format, expressed in yeast) VH: QVQLVQSGAEVKKPGASVKVSCKASGYTFTAQYMHWVRQAPGQGLEWMGIINPSGGETGYAQKFQGRVTMTRDTSTSTVYMELSSLRSEDTAVYYCAKEGVADGYGLVDVWGQGTMVTVSS VL: EIVLTQSPATLSLSPGERATLSCRASQSVSSYLAWYQQKPGQAPRLLIYDASKRATGIPARFSGSGSGTDFTLTISSLEPEDFAVYYCDQRNNWPLTFGGGTKVEIK | 519 pg/mL | 587 pg/mL | 914 pg/mL | 1190 pg/mL | 1620 pg/mL | 1.01 fold | 1.15 fold | 1.83 fold | 2.29 fold | 2.62 fold | 4.12 nM | 0.97 fold | 1.5 fold | 1.82 fold | 1.79 fold | 1.84 fold | 14400 pg/mL | 16500 pg/mL | 21100 pg/mL | 24100 pg/mL | IFNγ in supernatant, 100 nM IgG [3]: 27400 pg/mL; Kd [4]: 0.12 nM; Kd [5]: 1.9 nM; MFI (PD-L2-FITC) [6]: 30100 MFI; EC50 (murine PD-1 on CHO cells): 2.88 nM; Kd [7]: 0.0093 nM; Kd [8]: 0.13 nM; Kd (human PD-1_HIS): 1 nM |
